The values below are quoted from earlier work in PMC2363349.

In the data set the target is TGF-βRII (Homo sapiens) (UniProt P37173).
Sequence of TGF-βRII (Homo sapiens) (P37173 23-166): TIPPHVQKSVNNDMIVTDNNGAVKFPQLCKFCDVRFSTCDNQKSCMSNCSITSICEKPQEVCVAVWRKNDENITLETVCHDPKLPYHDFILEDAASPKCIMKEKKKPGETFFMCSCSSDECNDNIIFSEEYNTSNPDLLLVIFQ

Sequence of TGF-β1 (P01137 279-390): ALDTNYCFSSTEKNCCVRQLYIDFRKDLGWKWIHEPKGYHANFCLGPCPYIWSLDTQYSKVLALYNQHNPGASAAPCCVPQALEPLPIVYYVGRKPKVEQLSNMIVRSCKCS

The term Kd denotes a measure of binding affinity in units of concentration. With TGF-β1 (from UniProt P01137), the Kd was 0.5 nM.
